Two molecules from publication PMC11358013, “FANCD2–FANCI surveys DNA and recognizes double- to single-stranded junctions” can be followed below.

Series [1] addresses T1, FANCD2 WT;FANCI WT (Gallus gallus;Gallus gallus, UniProt Q68Y81;B0I564 1-1439;1-1338, |). The series can be described thus: cryo-EM; stalled state; 24 bp duplex modelled; EMSA: 50 mM HEPES pH 8.0, 75 mM NaCl, 1 mM TCEP, 20 nM DNA, 20-22 C; switchSENSE: 20 mM HEPES pH 8.0, 75 mM NaCl, 1 mM TCEP, 25 C; cryo-EM and single-molecule:
The conditions noted are these: protein: recombinant;recombinant; copies: 1;1; 29 bp duplex; strand 1 has 5' ssDNA 30 nt and 3' ssDNA 40 nt. In general terms: Mobility shift assays separate free from complexed probe on a gel.

The target in series [2] is T1, FANCD2 WT;FANCI WT. The series can be described thus: EMSA; unlabelled D2-I; EMSA: 50 mM HEPES pH 8.0, 75 mM NaCl, 1 mM TCEP, 20 nM DNA, 20-22 C; switchSENSE: 20 mM HEPES pH 8.0, 75 mM NaCl, 1 mM TCEP, 25 C; cryo-EM and single-molecule:
The conditions noted are these: protein: recombinant;recombinant; copies: 1;1; label: 3' FAM on P1; blunt.

Series [3] has as its target FANCD2-ybbR-Cy3;FANCI-ybbR-Cy5 (Gallus gallus;Gallus gallus, UniProt Q68Y81;B0I564 1-1439;1-1338, |). The series can be described thus: EMSA; double-labelled D2-I, affinity comparable to unlabelled; EMSA: 50 mM HEPES pH 8.0, 75 mM NaCl, 1 mM TCEP, 20 nM DNA, 20-22 C; switchSENSE: 20 mM HEPES pH 8.0, 75 mM NaCl, 1 mM TCEP, 25 C; cryo-EM and single-molecule:
The conditions noted are these: protein: recombinant;recombinant; copies: 1;1; label: 3' FAM on P1; blunt.

T1 sequence (Q68Y81 whole entry, chain 1 of 2): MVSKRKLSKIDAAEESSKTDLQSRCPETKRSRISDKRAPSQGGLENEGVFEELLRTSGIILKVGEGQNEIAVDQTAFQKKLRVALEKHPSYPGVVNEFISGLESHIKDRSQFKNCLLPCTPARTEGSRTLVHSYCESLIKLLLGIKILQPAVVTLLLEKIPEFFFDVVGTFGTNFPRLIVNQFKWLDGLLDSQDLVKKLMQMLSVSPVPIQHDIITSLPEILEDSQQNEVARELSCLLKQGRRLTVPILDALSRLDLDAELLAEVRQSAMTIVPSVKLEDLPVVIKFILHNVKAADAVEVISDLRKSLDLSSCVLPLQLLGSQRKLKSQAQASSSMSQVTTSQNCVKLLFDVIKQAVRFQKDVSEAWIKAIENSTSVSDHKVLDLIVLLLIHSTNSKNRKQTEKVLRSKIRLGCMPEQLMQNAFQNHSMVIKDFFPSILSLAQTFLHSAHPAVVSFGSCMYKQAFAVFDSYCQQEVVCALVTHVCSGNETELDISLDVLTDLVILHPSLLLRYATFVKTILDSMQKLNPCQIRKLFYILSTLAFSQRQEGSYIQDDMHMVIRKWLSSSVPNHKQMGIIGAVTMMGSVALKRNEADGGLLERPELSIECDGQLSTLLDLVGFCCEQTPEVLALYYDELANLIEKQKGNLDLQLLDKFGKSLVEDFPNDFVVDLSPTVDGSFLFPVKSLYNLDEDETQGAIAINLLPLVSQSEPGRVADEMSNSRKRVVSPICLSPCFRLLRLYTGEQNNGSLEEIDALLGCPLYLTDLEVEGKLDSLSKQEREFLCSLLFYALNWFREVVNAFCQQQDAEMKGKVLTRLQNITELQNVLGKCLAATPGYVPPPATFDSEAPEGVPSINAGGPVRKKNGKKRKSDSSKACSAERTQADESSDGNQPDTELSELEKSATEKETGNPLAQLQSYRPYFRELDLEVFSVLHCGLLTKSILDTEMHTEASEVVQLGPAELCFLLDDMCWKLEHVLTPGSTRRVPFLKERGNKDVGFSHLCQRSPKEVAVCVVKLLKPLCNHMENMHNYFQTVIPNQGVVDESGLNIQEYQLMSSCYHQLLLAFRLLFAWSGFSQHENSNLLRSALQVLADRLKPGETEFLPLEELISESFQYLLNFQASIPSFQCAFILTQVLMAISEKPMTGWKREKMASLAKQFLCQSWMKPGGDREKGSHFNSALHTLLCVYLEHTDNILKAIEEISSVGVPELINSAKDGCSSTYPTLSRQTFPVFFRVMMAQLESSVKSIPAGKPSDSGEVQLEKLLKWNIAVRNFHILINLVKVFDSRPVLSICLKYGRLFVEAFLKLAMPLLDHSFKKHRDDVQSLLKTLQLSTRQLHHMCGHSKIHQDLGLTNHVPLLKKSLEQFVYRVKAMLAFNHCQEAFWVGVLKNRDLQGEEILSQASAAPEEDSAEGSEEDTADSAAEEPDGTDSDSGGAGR
T1 sequence (B0I564 whole entry, chain 2 of 2): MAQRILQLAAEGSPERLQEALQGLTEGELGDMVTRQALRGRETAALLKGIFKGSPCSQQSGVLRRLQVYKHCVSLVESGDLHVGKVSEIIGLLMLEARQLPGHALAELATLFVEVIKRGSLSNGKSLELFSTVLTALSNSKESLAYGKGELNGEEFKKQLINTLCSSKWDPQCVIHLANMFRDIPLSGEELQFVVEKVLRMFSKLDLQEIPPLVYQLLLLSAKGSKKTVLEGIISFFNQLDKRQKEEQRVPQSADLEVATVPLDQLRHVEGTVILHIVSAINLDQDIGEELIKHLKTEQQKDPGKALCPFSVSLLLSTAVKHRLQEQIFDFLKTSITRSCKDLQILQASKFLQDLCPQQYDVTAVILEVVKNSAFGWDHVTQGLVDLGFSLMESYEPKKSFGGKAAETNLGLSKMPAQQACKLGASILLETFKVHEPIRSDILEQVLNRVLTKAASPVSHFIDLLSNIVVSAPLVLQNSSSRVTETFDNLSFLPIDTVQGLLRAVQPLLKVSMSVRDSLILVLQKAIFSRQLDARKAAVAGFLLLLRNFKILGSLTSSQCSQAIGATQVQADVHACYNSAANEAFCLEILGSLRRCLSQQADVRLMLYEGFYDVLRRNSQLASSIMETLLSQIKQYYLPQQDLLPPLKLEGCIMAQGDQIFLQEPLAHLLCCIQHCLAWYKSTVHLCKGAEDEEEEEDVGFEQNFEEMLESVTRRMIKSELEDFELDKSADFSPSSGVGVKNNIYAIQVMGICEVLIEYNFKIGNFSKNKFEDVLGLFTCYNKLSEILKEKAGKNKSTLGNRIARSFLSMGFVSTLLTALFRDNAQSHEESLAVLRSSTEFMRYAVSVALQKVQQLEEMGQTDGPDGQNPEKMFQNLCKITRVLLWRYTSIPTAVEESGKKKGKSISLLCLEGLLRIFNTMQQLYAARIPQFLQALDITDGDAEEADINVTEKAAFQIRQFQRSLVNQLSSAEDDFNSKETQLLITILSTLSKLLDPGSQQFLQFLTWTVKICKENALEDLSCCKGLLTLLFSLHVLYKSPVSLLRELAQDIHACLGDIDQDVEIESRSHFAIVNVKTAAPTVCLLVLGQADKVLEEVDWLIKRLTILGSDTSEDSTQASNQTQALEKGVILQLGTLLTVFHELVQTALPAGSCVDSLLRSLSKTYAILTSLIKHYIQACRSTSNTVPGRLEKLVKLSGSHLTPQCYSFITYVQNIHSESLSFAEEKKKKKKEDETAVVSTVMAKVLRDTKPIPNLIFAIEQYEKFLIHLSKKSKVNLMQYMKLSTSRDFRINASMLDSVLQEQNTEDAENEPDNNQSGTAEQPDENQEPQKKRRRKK
Chain of FANCD2-ybbR-Cy3;FANCI-ybbR-Cy5 (Q68Y81 whole entry, chain 1 of 2): as the sequence (Q68Y81 whole entry, chain 1 of 2) above
Chain of FANCD2-ybbR-Cy3;FANCI-ybbR-Cy5 (B0I564 whole entry, chain 2 of 2): as the sequence (B0I564 whole entry, chain 2 of 2) above

B1: ss-dsDNA J1/J2 (mixed)
DNA 1: TTTTTTTTTTTTTTTTTTTTTTTTTTTTTTATCGATGTCTCTAGACAGCTGCTCAGGATTGATCTGTAATTTTTTTTTTTTTTTTTTTTTTTTTTTTTT
DNA 2: ATCCTGAGCAGCTGTCTAGAGACATCGAT
As for B1, in series [1], the binding result is reported as “binds”.

B2: 44 bp dsDNA P1/P7 (FAM) (dsDNA)
DNA 1: ATCGATGTCTCTAGACAGCTGCTCAGGATTGATCTGTAATGGCC
DNA 2: GGCCATTACAGATCAATCCTGAGCAGCTGTCTAGAGACATCGAT
Regarding B2, the binding result in series [2] and in series [3] was “binds” in each case.
